Test results: patent publication US20250171562A1 (ALK ABELL, published 2025)

B1: NIgG4F4A1(RS) (Fc fusion)
chain 1: DVQLQESGGGLVQAGGSLRLSCAVSGLSFSSMGWFRQPPGKEREFVAAISLYSGSTYYADSVKGRFTISSDNAKSTVYLQMNSLKPEDAAVYFCAADRQRTWSTFYASRQATYNYWGQGTQVTVTSRSGPPCPPCPAPEFLGGPSVFLFPPKPKDTLMISRTPEVTCVVVDVSQEDPEVQFNWYVDGVEVHNAKTKPREEQFNSTYRVVSVLTVLHQDWLNGKEYKCKVSNKGLPSSIEKTISKAKGQPREPQVYTLPPCQEEMTKNQVSLWCLVKGFYPSDIAVEWESNGQPENNYKTTPPVLDSDGSFFLYSRLTVDKSRWQEGNVFSCSVMHEALHNHYTQKSLSLSLGK
chain 2: EVQLLESGGGLVQPGGSLRLSCAASGFTFGNYDMAWVRQAPGKRPEWVSSIDTGGDITHYADSVKGRFTISRDNAKNTLYLQMNSLRPEDTAVYWCATDEEYALGPNEFDYYGQGTLVTVSSRSGPPCPPCPAPEFLGGPSVFLFPPKPKDTLMISRTPEVTCVVVDVSQEDPEVQFNWYVDGVEVHNAKTKPREEQFNSTYRVVSVLTVLHQDWLNGKEYKCKVSNKGLPSSIEKTISKAKGQPREPQVCTLPPSQEEMTKNQVSLSCAVKGFYPSDIAVEWESNGQPENNYKTTPPVLDSDGSFFLVSRLTVDKSRWQEGNVFSCSVMHEALHNHYTQKSLSLSLGK
B2: CIgG4F3A1(G4S)1 (Fc fusion)
chain 1: GPPCPPCPAPEFLGGPSVFLFPPKPKDTLMISRTPEVTCVVVDVSQEDPEVQFNWYVDGVEVHNAKTKPREEQFNSTYRVVSVLTVLHQDWLNGKEYKCKVSNKGLPSSIEKTISKAKGQPREPQVYTLPPCQEEMTKNQVSLWCLVKGFYPSDIAVEWESNGQPENNYKTTPPVLDSDGSFFLYSRLTVDKSRWQEGNVFSCSVMHEALHNHYTQKSLSLSLGKGGGGSDVQLQESGGGLVQAGGSLKLSCAASRGSLSRWDVAWFRQAPGKERSFVTRISWSGTTSYYADAVKGRFAISRDNAKNTVYLQMNSLKPEDTAVYYCAVALYGNRGYYDVNAHSYWGQGTQVTVS
chain 2: GPPCPPCPAPEFLGGPSVFLFPPKPKDTLMISRTPEVTCVVVDVSQEDPEVQFNWYVDGVEVHNAKTKPREEQFNSTYRVVSVLTVLHQDWLNGKEYKCKVSNKGLPSSIEKTISKAKGQPREPQVCTLPPSQEEMTKNQVSLSCAVKGFYPSDIAVEWESNGQPENNYKTTPPVLDSDGSFFLVSRLTVDKSRWQEGNVFSCSVMHEALHNHYTQKSLSLSLGKGGGGSEVQLLESGGGLVQPGGSLRLSCAASGFTFGNYDMAWVRQAPGKRPEWVSSIDTGGDITHYADSVKGRFTISRDNAKNTLYLQMNSLRPEDTAVYWCATDEEYALGPNEFDYYGQGTLVTVSS
B3: CIgG4F3A1(RS) (Fc fusion)
chain 1: GPPCPPCPAPEFLGGPSVFLFPPKPKDTLMISRTPEVTCVVVDVSQEDPEVQFNWYVDGVEVHNAKTKPREEQFNSTYRVVSVLTVLHQDWLNGKEYKCKVSNKGLPSSIEKTISKAKGQPREPQVYTLPPCQEEMTKNQVSLWCLVKGFYPSDIAVEWESNGQPENNYKTTPPVLDSDGSFFLYSRLTVDKSRWQEGNVFSCSVMHEALHNHYTQKSLSLSLGKRSDVQLQESGGGLVQAGGSLKLSCAASRGSLSRWDVAWFRQAPGKERSFVTRISWSGTTSYYADAVKGRFAISRDNAKNTVYLQMNSLKPEDTAVYYCAVALYGNRGYYDVNAHSYWGQGTQVTVS
chain 2: GPPCPPCPAPEFLGGPSVFLFPPKPKDTLMISRTPEVTCVVVDVSQEDPEVQFNWYVDGVEVHNAKTKPREEQFNSTYRVVSVLTVLHQDWLNGKEYKCKVSNKGLPSSIEKTISKAKGQPREPQVCTLPPSQEEMTKNQVSLSCAVKGFYPSDIAVEWESNGQPENNYKTTPPVLDSDGSFFLVSRLTVDKSRWQEGNVFSCSVMHEALHNHYTQKSLSLSLGKRSEVQLLESGGGLVQPGGSLRLSCAASGFTFGNYDMAWVRQAPGKRPEWVSSIDTGGDITHYADSVKGRFTISRDNAKNTLYLQMNSLRPEDTAVYWCATDEEYALGPNEFDYYGQGTLVTVSS
B4: CIgG4F2A1(G4S)3 (Fc fusion)
chain 1: GPPCPPCPAPEFLGGPSVFLFPPKPKDTLMISRTPEVTCVVVDVSQEDPEVQFNWYVDGVEVHNAKTKPREEQFNSTYRVVSVLTVLHQDWLNGKEYKCKVSNKGLPSSIEKTISKAKGQPREPQVYTLPPCQEEMTKNQVSLWCLVKGFYPSDIAVEWESNGQPENNYKTTPPVLDSDGSFFLYSRLTVDKSRWQEGNVFSCSVMHEALHNHYTQKSLSLSLGKGGGGSGGGGSGGGGSDVQLQESGGGLVQAGGSLKLSCAASGGSLSRYDMGWFRQAPGKEREFVARISWSGDTKYYADAVEGRFAISRDNAQNTVYLQMNSLKPEDTAVYYCAVALYGNRGYYDVNTYSYWGQGTRVTVS
chain 2: GPPCPPCPAPEFLGGPSVFLFPPKPKDTLMISRTPEVTCVVVDVSQEDPEVQFNWYVDGVEVHNAKTKPREEQFNSTYRVVSVLTVLHQDWLNGKEYKCKVSNKGLPSSIEKTISKAKGQPREPQVCTLPPSQEEMTKNQVSLSCAVKGFYPSDIAVEWESNGQPENNYKTTPPVLDSDGSFFLVSRLTVDKSRWQEGNVFSCSVMHEALHNHYTQKSLSLSLGKGGGGSGGGGSGGGGSEVQLLESGGGLVQPGGSLRLSCAASGFTFGNYDMAWVRQAPGKRPEWVSSIDTGGDITHYADSVKGRFTISRDNAKNTLYLQMNSLRPEDTAVYWCATDEEYALGPNEFDYYGQGTLVTVSS
B5: CIgG4F3A1(G4S)3 (Fc fusion)
chain 1: GPPCPPCPAPEFLGGPSVFLFPPKPKDTLMISRTPEVTCVVVDVSQEDPEVQFNWYVDGVEVHNAKTKPREEQFNSTYRVVSVLTVLHQDWLNGKEYKCKVSNKGLPSSIEKTISKAKGQPREPQVYTLPPCQEEMTKNQVSLWCLVKGFYPSDIAVEWESNGQPENNYKTTPPVLDSDGSFFLYSRLTVDKSRWQEGNVFSCSVMHEALHNHYTQKSLSLSLGKGGGGSGGGGSGGGGSDVQLQESGGGLVQAGGSLKLSCAASRGSLSRWDVAWFRQAPGKERSFVTRISWSGTTSYYADAVKGRFAISRDNAKNTVYLQMNSLKPEDTAVYYCAVALYGNRGYYDVNAHSYWGQGTQVTVS
chain 2: B4 chain 2
B6: CIgG4F3A1(G4S)2 (Fc fusion)
chain 1: GPPCPPCPAPEFLGGPSVFLFPPKPKDTLMISRTPEVTCVVVDVSQEDPEVQFNWYVDGVEVHNAKTKPREEQFNSTYRVVSVLTVLHQDWLNGKEYKCKVSNKGLPSSIEKTISKAKGQPREPQVYTLPPCQEEMTKNQVSLWCLVKGFYPSDIAVEWESNGQPENNYKTTPPVLDSDGSFFLYSRLTVDKSRWQEGNVFSCSVMHEALHNHYTQKSLSLSLGKGGGGSGGGGSDVQLQESGGGLVQAGGSLKLSCAASRGSLSRWDVAWFRQAPGKERSFVTRISWSGTTSYYADAVKGRFAISRDNAKNTVYLQMNSLKPEDTAVYYCAVALYGNRGYYDVNAHSYWGQGTQVTVS
chain 2: GPPCPPCPAPEFLGGPSVFLFPPKPKDTLMISRTPEVTCVVVDVSQEDPEVQFNWYVDGVEVHNAKTKPREEQFNSTYRVVSVLTVLHQDWLNGKEYKCKVSNKGLPSSIEKTISKAKGQPREPQVCTLPPSQEEMTKNQVSLSCAVKGFYPSDIAVEWESNGQPENNYKTTPPVLDSDGSFFLVSRLTVDKSRWQEGNVFSCSVMHEALHNHYTQKSLSLSLGKGGGGSGGGGSEVQLLESGGGLVQPGGSLRLSCAASGFTFGNYDMAWVRQAPGKRPEWVSSIDTGGDITHYADSVKGRFTISRDNAKNTLYLQMNSLRPEDTAVYWCATDEEYALGPNEFDYYGQGTLVTVSS

Each binder was assayed against T1, recombinant human IgE (human, UniProt P01854-1 1-428) (assay: IgE-FcεRIα displacement ELISA).
T1 construct: made in-house (ALK); preloaded on immobilised FcεRIα in the displacement ELISA
T1 sequence (P01854 other isoform, or with tags, fused parts or gaps): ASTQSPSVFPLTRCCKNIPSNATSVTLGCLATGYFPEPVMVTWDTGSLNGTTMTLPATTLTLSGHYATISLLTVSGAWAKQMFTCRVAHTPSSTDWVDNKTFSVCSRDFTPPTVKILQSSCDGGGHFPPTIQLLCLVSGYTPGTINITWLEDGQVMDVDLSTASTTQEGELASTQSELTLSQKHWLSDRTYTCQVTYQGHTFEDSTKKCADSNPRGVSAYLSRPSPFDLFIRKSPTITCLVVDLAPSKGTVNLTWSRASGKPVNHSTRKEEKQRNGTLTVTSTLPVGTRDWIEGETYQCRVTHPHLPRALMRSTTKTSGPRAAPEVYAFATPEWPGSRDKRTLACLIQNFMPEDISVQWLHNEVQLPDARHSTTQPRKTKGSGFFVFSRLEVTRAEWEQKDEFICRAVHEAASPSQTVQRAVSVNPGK
Summary of the method: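 sdAbs at pM–μM were incubated 1 h on preformed complexes of 13 ng/ml recombinant human IgE with avi-tag-biotinylated human FcεRIα captured on streptavidin.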

Max effect [%] | EC50 [nM] | Binder
> 95 |  | B1
50 | 1000 | B2
30 |  | B3
45 |  | B4
90 | 24 | B5
80 | 41 | B6
